In patent publication US20080160008:

Legend:
[1] = molecular target: Aβ1-42 (fresh, nonaggregated synthetic peptide, rPeptide) (UniProt P05067)
Aβ1-40 = Aβ1-40 (UniProt P05067)
fibrillar Aβ1-42 = fibrillar Aβ1-42 (UniProt P05067)
Aβ1-38 = Aβ1-38 (UniProt P05067)
[2] = molecular target: high-molecular-weight (MW) Aβ assemblies (UniProt P05067)
protofibrillar Aβ1-42 = protofibrillar Aβ1-42 (UniProt P05067)
Chain of protofibrillar Aβ1-42 (P05067 whole entry, looked up, tested part not stated): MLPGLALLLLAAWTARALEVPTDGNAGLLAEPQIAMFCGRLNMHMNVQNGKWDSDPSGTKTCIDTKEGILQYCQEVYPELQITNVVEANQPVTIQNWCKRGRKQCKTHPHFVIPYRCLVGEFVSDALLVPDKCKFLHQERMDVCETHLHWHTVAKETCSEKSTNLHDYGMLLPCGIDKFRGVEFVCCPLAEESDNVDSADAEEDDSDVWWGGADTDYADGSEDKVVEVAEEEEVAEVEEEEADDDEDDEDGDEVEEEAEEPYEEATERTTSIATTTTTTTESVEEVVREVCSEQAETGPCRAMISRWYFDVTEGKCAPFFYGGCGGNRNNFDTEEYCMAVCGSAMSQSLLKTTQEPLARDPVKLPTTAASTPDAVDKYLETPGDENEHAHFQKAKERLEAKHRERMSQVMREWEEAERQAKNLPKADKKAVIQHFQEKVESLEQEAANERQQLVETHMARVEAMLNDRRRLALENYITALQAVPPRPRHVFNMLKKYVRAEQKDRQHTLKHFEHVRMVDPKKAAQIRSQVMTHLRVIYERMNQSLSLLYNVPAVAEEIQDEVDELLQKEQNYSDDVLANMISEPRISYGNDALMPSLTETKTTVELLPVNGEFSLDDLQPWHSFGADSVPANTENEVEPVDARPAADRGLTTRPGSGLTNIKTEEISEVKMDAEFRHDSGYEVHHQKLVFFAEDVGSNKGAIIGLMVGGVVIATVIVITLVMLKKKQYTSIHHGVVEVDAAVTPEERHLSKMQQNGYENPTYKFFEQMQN

Chain of Aβ1-42 (fresh, nonaggregated synthetic peptide, rPeptide) (P05067 whole entry, looked up, tested part not stated): as above
Chain of fibrillar Aβ1-42 (P05067 whole entry, looked up, tested part not stated): as above
Chain of Aβ1-40 (P05067 whole entry, looked up, tested part not stated): as above
Chain of Aβ1-38 (P05067 whole entry, looked up, tested part not stated): as above
Chain of high-molecular-weight (MW) Aβ assemblies (P05067 whole entry, looked up): as the sequence (P05067 whole entry, looked up, tested part not stated) above

purified CatB from human liver (Sigma)
SELDI-TOF mass spectrometry of cleavage at pH 7.0 [1]: At neutral pH (˜7.0), the ability of CatB to cleave Aβ, especially nonaggregated (fresh) Aβ, was markedly reduced | proteolytic products analyzed with SELDI-TOF mass spectrometry [1]: Incubating Aβ1-42 with CatB resulted in the dose-dependent generation of Aβ1-40, Aβ1-38, and Aβ1-33 through proteolytic cleavage at Val40-Ile41, Gly38-Gly39, and Gly33-Leu34 | western blot analysis of acid-urea gels [1]: The dose-dependent cleavage of Aβ1-42 was confirmed by western blot analysis of acid-urea gels | western blot of Tricine SDS-PAGE gels [1]: Levels of low-MW Aβ1-42 oligomers and monomers, detected with an antibody specific for Aβ1-42, were also reduced | proteolytic products analyzed with SELDI-TOF mass spectrometry (Aβ1-40): Levels of Aβ1-40 were increased initially at lower doses (100-400 ng/ml), but decreased at higher doses (0.4-2.5 µg/ml) | SELDI-TOF mass spectrometry of cleavage at pH 7.0 (fibrillar Aβ1-42): protofibrillar/nonfibrillar Aβ oligomers and fibrillar Aβ1-42 preparations were cleaved by CatB even at neutral pH, resulting in the same truncated Aβ species observed at pH 6.0 | amount of fibrillar structures by electron microscopy (fibrillar Aβ1-42): incubation of fibrillar Aβ1-42 with CatB did reduce the amount of fibrillar structures | proteolytic products analyzed with SELDI-TOF mass spectrometry (Aβ1-38): even when Aβ1-40 was almost completely converted to Aβ1-38, no Aβ1-36 was generated from Aβ1-38 | western blot of Tricine SDS-PAGE gels [2]: Incubation of CatB induced a marked decrease in the amounts of high-molecular-weight (MW) Aβ assemblies | SELDI-TOF mass spectrometry of cleavage at pH 6.0 (protofibrillar Aβ1-42): at pH 6.0, were cleaved by CatB as efficiently as nonaggregated preparations, resulting in the same C-terminally-truncated peptides, Aβ1-40, Aβ1-38, and Aβ1-33 | SELDI-TOF mass spectrometry of cleavage at pH 7.0 (protofibrillar Aβ1-42): protofibrillar/nonfibrillar Aβ oligomers and fibrillar Aβ1-42 preparations were cleaved by CatB even at neutral pH, resulting in the same truncated Aβ species observed at pH 6.0
